Measured values published in patent US20040265797A1 (published 2004).
Like-named read-outs stand apart in the source and are kept apart here. Ends that are not written are not given here.

Columns and labels:
[1] = target: T1, Soluble recombinant human urokinase receptor (suPAR) (human, UniProt Q03405 23-299, biotinylated in the plate assays (sites not given)); assay: uPAR receptor binding assay
[2] = target: T1, Soluble recombinant human urokinase …; assay: uPAR receptor binding assay; remark: listed apart in the source

T1 sequence (Q03405 23-299): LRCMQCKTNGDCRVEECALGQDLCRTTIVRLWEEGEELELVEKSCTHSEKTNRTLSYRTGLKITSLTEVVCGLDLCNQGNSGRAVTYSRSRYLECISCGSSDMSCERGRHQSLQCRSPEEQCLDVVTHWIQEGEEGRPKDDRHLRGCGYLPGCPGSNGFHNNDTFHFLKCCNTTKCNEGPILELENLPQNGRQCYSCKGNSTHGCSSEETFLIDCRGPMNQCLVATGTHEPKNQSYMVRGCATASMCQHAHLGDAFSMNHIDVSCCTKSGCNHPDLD

CLNGGTAVSNKYFSNIHWCN [uPA13-32 peptide (amino acids 13-32 of human urokinase with Cys19 converted to Ala)]
IC50 [1]: 250 nM
IC50 [2]: 250 nM

AEPMPHSLNFSQYLWYT-NH2 [Clone 20 peptide]
IC50 [1]: 10 nM
IC50 [2]: 10 nM

AESTYHHLSLGYMYTLN-NH2 [Peptide 25 (synthetic peptide of clone 25)]
IC50 [1]: > 10000 nM
IC50 [2]: > 10000 nM
